Publication PMC4006906 (PLoS Pathogens, 2014)

Molecular target: H5VN04 trimeric HA (recombinant hemagglutinin) (Influenza A virus A/Vietnam/1203/2004 …, strain)
Assay: SPR
Conditions: both partners purified

B1: CR6261 scFv (wild type) (scFv, V domains shown)
VH: EVQLVESGAEVKKPGSSVKVSCKASGGPFRSYAISWVRQAPGQGPEWMGGIIPIFGTTKYAPKFQGRVTITADDFAGTVYMELSSLRSEDTAMYYCAKHMGYQVRETMDVWGKGTTVTVSS
VL: QSVLTQPPSVSAAPGQKVTISCSGSSSNIGNDYVSWYQQLPGTAPKLLIYDNNKRPSGIPDRFSGSKSGTSATLGITGLQTGDEANYYCATWDRRPTAYVVFGGGTKLTVL
B1: binds.
